# Patent US20180071366A1
# Numbered stars: 1 amine (or outer) side, 2 acyl side, 3 side chain; on linkers, the order of the positions; unused ones are H or OH. Bridge positions count the residues as written; N and C are the ends. Square brackets hold non-standard residues; d marks the D form. * marks the point of attachment. C20 diacid = O=C(O)CCCCCCCCCCCCCCCCCCC(=O)*; γGlu = O=C(O)[C@H](CCC(=O)[*:2])N[*:1]; Hyp = O=C(O)[C@@H]1C[C@@H](O)CN1; NMeI = CC[C@H](C)[C@H](NC)C(=O)O; Aad = N[C@@H](CCCC(=O)O)C(=O)O; Orn = NCCC[C@H](N)C(=O)O; Dab = NCC[C@H](N)C(=O)O; Dap = NC[C@H](N)C(=O)O; Sar = CNCC(=O)O
# B1: Compound 44 (peptide)
# peptide: {C20 diacid-γGlu}-KDGTATKATQRLANFLQRSSF[Sar]A[NMeI]LSSTETGSNT[Hyp]-NH2
# modifications: lactam 2-7
# SMILES: CC[C@H](C)[C@@H](C(=O)N[C@@H](CC(C)C)C(=O)N[C@@H](CO)C(=O)N[C@@H](CO)C(=O)N[C@H](C(=O)N[C@@H](CCC(=O)O)C(=O)N[C@H](C(=O)NCC(=O)N[C@@H](CO)C(=O)N[C@@H](CC(N)=O)C(=O)N[C@H](C(=O)N1C[C@H](O)C[C@H]1C(N)=O)[C@@H](C)O)[C@@H](C)O)[C@@H](C)O)N(C)C(=O)[C@H](C)NC(=O)CN(C)C(=O)[C@H](Cc1ccccc1)NC(=O)[C@H](CO)NC(=O)[C@H](CO)NC(=O)[C@H](CCCNC(=N)N)NC(=O)[C@H](CCC(N)=O)NC(=O)[C@H](CC(C)C)NC(=O)[C@H](Cc1ccccc1)NC(=O)[C@H](CC(N)=O)NC(=O)[C@H](C)NC(=O)[C@H](CC(C)C)NC(=O)[C@H](CCCNC(=N)N)NC(=O)[C@H](CCC(N)=O)NC(=O)[C@@H](NC(=O)[C@H](C)NC(=O)[C@@H]1CCCCNC(=O)C[C@H](NC(=O)[C@H](CCCCN)NC(=O)CC[C@H](NC(=O)CCCCCCCCCCCCCCCCCCC(=O)O)C(=O)O)C(=O)NCC(=O)N[C@@H]([C@@H](C)O)C(=O)N[C@@H](C)C(=O)N[C@@H]([C@@H](C)O)C(=O)N1)[C@@H](C)O
# B2: Compound 49 (peptide)
# peptide: {C20 diacid-γGlu}-R[Dab]GTATEATERLAHFLQRSSF[Sar]A[NMeI]LSSTEVGSNT[Hyp]-NH2
# modifications: lactam 2-7
# SMILES: CC[C@H](C)[C@@H](C(=O)N[C@@H](CC(C)C)C(=O)N[C@@H](CO)C(=O)N[C@@H](CO)C(=O)N[C@H](C(=O)N[C@@H](CCC(=O)O)C(=O)N[C@H](C(=O)NCC(=O)N[C@@H](CO)C(=O)N[C@@H](CC(N)=O)C(=O)N[C@H](C(=O)N1C[C@H](O)C[C@H]1C(N)=O)[C@@H](C)O)C(C)C)[C@@H](C)O)N(C)C(=O)[C@H](C)NC(=O)CN(C)C(=O)[C@H](Cc1ccccc1)NC(=O)[C@H](CO)NC(=O)[C@H](CO)NC(=O)[C@H](CCCNC(=N)N)NC(=O)[C@H](CCC(N)=O)NC(=O)[C@H](CC(C)C)NC(=O)[C@H](Cc1ccccc1)NC(=O)[C@H](Cc1c[nH]cn1)NC(=O)[C@H](C)NC(=O)[C@H](CC(C)C)NC(=O)[C@H](CCCNC(=N)N)NC(=O)[C@H](CCC(=O)O)NC(=O)[C@@H](NC(=O)[C@H](C)NC(=O)[C@@H]1CCC(=O)NCC[C@H](NC(=O)[C@H](CCCNC(=N)N)NC(=O)CC[C@H](NC(=O)CCCCCCCCCCCCCCCCCCC(=O)O)C(=O)O)C(=O)NCC(=O)N[C@@H]([C@@H](C)O)C(=O)N[C@@H](C)C(=O)N[C@@H]([C@@H](C)O)C(=O)N1)[C@@H](C)O
# B3: Compound 46 (peptide)
# peptide: {C20 diacid-γGlu}-R[Dab]GTATDATERLAHFLQRSSF[Sar]A[NMeI]LSSTEVGSNT[Hyp]-NH2
# modifications: lactam 2-7
# SMILES: CC[C@H](C)[C@@H](C(=O)N[C@@H](CC(C)C)C(=O)N[C@@H](CO)C(=O)N[C@@H](CO)C(=O)N[C@H](C(=O)N[C@@H](CCC(=O)O)C(=O)N[C@H](C(=O)NCC(=O)N[C@@H](CO)C(=O)N[C@@H](CC(N)=O)C(=O)N[C@H](C(=O)N1C[C@H](O)C[C@H]1C(N)=O)[C@@H](C)O)C(C)C)[C@@H](C)O)N(C)C(=O)[C@H](C)NC(=O)CN(C)C(=O)[C@H](Cc1ccccc1)NC(=O)[C@H](CO)NC(=O)[C@H](CO)NC(=O)[C@H](CCCNC(=N)N)NC(=O)[C@H](CCC(N)=O)NC(=O)[C@H](CC(C)C)NC(=O)[C@H](Cc1ccccc1)NC(=O)[C@H](Cc1c[nH]cn1)NC(=O)[C@H](C)NC(=O)[C@H](CC(C)C)NC(=O)[C@H](CCCNC(=N)N)NC(=O)[C@H](CCC(=O)O)NC(=O)[C@@H](NC(=O)[C@H](C)NC(=O)[C@@H]1CC(=O)NCC[C@H](NC(=O)[C@H](CCCNC(=N)N)NC(=O)CC[C@H](NC(=O)CCCCCCCCCCCCCCCCCCC(=O)O)C(=O)O)C(=O)NCC(=O)N[C@@H]([C@@H](C)O)C(=O)N[C@@H](C)C(=O)N[C@@H]([C@@H](C)O)C(=O)N1)[C@@H](C)O
# B4: Compound 47 (peptide)
# peptide: {C20 diacid-γGlu}-R[Orn]GTATDATERLAHFLQRSSF[Sar]A[NMeI]LSSTEVGSNT[Hyp]-NH2
# modifications: lactam 2-7
# SMILES: CC[C@H](C)[C@@H](C(=O)N[C@@H](CC(C)C)C(=O)N[C@@H](CO)C(=O)N[C@@H](CO)C(=O)N[C@H](C(=O)N[C@@H](CCC(=O)O)C(=O)N[C@H](C(=O)NCC(=O)N[C@@H](CO)C(=O)N[C@@H](CC(N)=O)C(=O)N[C@H](C(=O)N1C[C@H](O)C[C@H]1C(N)=O)[C@@H](C)O)C(C)C)[C@@H](C)O)N(C)C(=O)[C@H](C)NC(=O)CN(C)C(=O)[C@H](Cc1ccccc1)NC(=O)[C@H](CO)NC(=O)[C@H](CO)NC(=O)[C@H](CCCNC(=N)N)NC(=O)[C@H](CCC(N)=O)NC(=O)[C@H](CC(C)C)NC(=O)[C@H](Cc1ccccc1)NC(=O)[C@H](Cc1c[nH]cn1)NC(=O)[C@H](C)NC(=O)[C@H](CC(C)C)NC(=O)[C@H](CCCNC(=N)N)NC(=O)[C@H](CCC(=O)O)NC(=O)[C@@H](NC(=O)[C@H](C)NC(=O)[C@@H]1CC(=O)NCCC[C@H](NC(=O)[C@H](CCCNC(=N)N)NC(=O)CC[C@H](NC(=O)CCCCCCCCCCCCCCCCCCC(=O)O)C(=O)O)C(=O)NCC(=O)N[C@@H]([C@@H](C)O)C(=O)N[C@@H](C)C(=O)N[C@@H]([C@@H](C)O)C(=O)N1)[C@@H](C)O
# B5: Compound 48 (peptide)
# peptide: {C20 diacid-γGlu}-R[Dap]GTAT[Aad]ATERLAHFLQRSSF[Sar]A[NMeI]LSSTEVGSNT[Hyp]-NH2
# modifications: lactam 2-7
# SMILES: CC[C@H](C)[C@@H](C(=O)N[C@@H](CC(C)C)C(=O)N[C@@H](CO)C(=O)N[C@@H](CO)C(=O)N[C@H](C(=O)N[C@@H](CCC(=O)O)C(=O)N[C@H](C(=O)NCC(=O)N[C@@H](CO)C(=O)N[C@@H](CC(N)=O)C(=O)N[C@H](C(=O)N1C[C@H](O)C[C@H]1C(N)=O)[C@@H](C)O)C(C)C)[C@@H](C)O)N(C)C(=O)[C@H](C)NC(=O)CN(C)C(=O)[C@H](Cc1ccccc1)NC(=O)[C@H](CO)NC(=O)[C@H](CO)NC(=O)[C@H](CCCNC(=N)N)NC(=O)[C@H](CCC(N)=O)NC(=O)[C@H](CC(C)C)NC(=O)[C@H](Cc1ccccc1)NC(=O)[C@H](Cc1c[nH]cn1)NC(=O)[C@H](C)NC(=O)[C@H](CC(C)C)NC(=O)[C@H](CCCNC(=N)N)NC(=O)[C@H](CCC(=O)O)NC(=O)[C@@H](NC(=O)[C@H](C)NC(=O)[C@@H]1CCCC(=O)NC[C@H](NC(=O)[C@H](CCCNC(=N)N)NC(=O)CC[C@H](NC(=O)CCCCCCCCCCCCCCCCCCC(=O)O)C(=O)O)C(=O)NCC(=O)N[C@@H]([C@@H](C)O)C(=O)N[C@@H](C)C(=O)N[C@@H]([C@@H](C)O)C(=O)N1)[C@@H](C)O
# B6: Compound 45 (peptide)
# peptide: {C20 diacid-γGlu}-R[Dap]GTATDATERLAHFLQRSSF[Sar]A[NMeI]LSSTEVGSNT[Hyp]-NH2
# modifications: lactam 2-7
# SMILES: CC[C@H](C)[C@@H](C(=O)N[C@@H](CC(C)C)C(=O)N[C@@H](CO)C(=O)N[C@@H](CO)C(=O)N[C@H](C(=O)N[C@@H](CCC(=O)O)C(=O)N[C@H](C(=O)NCC(=O)N[C@@H](CO)C(=O)N[C@@H](CC(N)=O)C(=O)N[C@H](C(=O)N1C[C@H](O)C[C@H]1C(N)=O)[C@@H](C)O)C(C)C)[C@@H](C)O)N(C)C(=O)[C@H](C)NC(=O)CN(C)C(=O)[C@H](Cc1ccccc1)NC(=O)[C@H](CO)NC(=O)[C@H](CO)NC(=O)[C@H](CCCNC(=N)N)NC(=O)[C@H](CCC(N)=O)NC(=O)[C@H](CC(C)C)NC(=O)[C@H](Cc1ccccc1)NC(=O)[C@H](Cc1c[nH]cn1)NC(=O)[C@H](C)NC(=O)[C@H](CC(C)C)NC(=O)[C@H](CCCNC(=N)N)NC(=O)[C@H](CCC(=O)O)NC(=O)[C@@H](NC(=O)[C@H](C)NC(=O)[C@@H]1CC(=O)NC[C@H](NC(=O)[C@H](CCCNC(=N)N)NC(=O)CC[C@H](NC(=O)CCCCCCCCCCCCCCCCCCC(=O)O)C(=O)O)C(=O)NCC(=O)N[C@@H]([C@@H](C)O)C(=O)N[C@@H](C)C(=O)N[C@@H]([C@@H](C)O)C(=O)N1)[C@@H](C)O
# Biological target: recombinant human calcitonin receptor (hCT-R) (human), P30988
# Sequence (P30988 25-474): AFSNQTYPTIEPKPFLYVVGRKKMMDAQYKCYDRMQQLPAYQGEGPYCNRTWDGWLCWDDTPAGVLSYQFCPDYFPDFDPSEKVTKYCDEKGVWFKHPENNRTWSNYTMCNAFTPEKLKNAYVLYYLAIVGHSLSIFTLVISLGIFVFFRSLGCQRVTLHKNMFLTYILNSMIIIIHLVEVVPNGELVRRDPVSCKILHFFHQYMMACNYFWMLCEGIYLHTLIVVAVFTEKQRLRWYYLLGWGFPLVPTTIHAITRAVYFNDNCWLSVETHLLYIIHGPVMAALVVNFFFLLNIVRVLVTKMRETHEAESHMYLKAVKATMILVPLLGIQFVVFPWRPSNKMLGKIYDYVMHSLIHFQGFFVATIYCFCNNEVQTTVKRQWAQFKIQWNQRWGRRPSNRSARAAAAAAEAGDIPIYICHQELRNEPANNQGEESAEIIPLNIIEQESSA
# Assay: cell-based or functional assay
row,"hCT-R EC50 [nM] (cAMP formation, 1321N1 cells expressing hCT-R)",Binder
1,0.02,B1
2,1.04,B2
3,7.5,B3
4,10.8,B4
5,0.107,B5
6,299,B6

# Biological target: recombinant human amylin 3 receptor (hAMYR3) (human), P30988
# Sequence (P30988 25-474, chain 1 of 2): as the sequence (P30988 25-474) above
# Sequence (O60896 24-148, chain 2 of 2, further chain): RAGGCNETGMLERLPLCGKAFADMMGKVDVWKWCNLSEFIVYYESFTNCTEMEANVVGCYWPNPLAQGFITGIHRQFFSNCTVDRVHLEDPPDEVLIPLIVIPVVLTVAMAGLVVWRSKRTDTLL
# Assay: cell-based or functional assay
row,"hAMYR3 EC50 [nM] (cAMP formation, 1321N1 cells expressing hAMYR3)",Binder
1,0.009,B1
2,0.442,B2
3,5.5,B3
4,7.7,B4
5,0.02,B5
6,279,B6
